Measurements: the supplement of paper PMC10724198
± gives the standard deviation of the averaged measurements.

test system: Saccharomyces cerevisiae; assay: protein stability index of tFT-peptide fusion (C-terminal peptide) (PSI (0-1 scale)); higher = more stable (slower turnover); conditions: genetic background: wild type; temperature: 30 C
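Further: PSI is a weighted mean of sequencing reads over stability bins, variants kept only with over 10 reads, mCherry proximal and sfGFP distal, peptide attached via GGGS linker.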

LLPYPAEPSPRR and KTEGQEKRVMSE are within error of each other in protein stability index: 0.713 ± 0.013 for the first, 0.734 ± 0.046 for the second.

LPTPRRHFRPPP and LLICRLFLFTIW are within error of each other in protein stability index: 0.657 ± 0.028 for the first, 0.555 ± 0.12 for the second.

First: FFFLPSPTFLPP
Second: PSPPAPFPLVPT
The protein stability index of the first is higher: 0.764 ± 0.046 for the first, 0.607 ± 0.032 for the second.

First: YKNDNDKCIQMR
Second: PIFPALPRLSPS
The protein stability index of the first is lower: 0.678 ± 0.011 for the first, 0.725 ± 0.022 for the second.

First: ALAPLISLSFLS
Second: FLQHPPHVLHPY
The protein stability index of the first is lower: 0.68919 ± 0.00059 for the first, 0.7013 ± 0.0069 for the second.

NFYKKLSNKMGQ and GDHPPMETISRP are within error of each other in protein stability index: 0.662 ± 0.039 for the first, 0.734 ± 0.095 for the second.

QVWLEKDPQETA and CIRSRHRRQSKG are within error of each other in protein stability index: 0.691 ± 0.016 for the first, 0.67 ± 0.088 for the second.

ITLQGDWCRLVD and GDGNERPLGRRD are within error of each other in protein stability index: 0.715 ± 0.092 for the first, 0.643 ± 0.052 for the second.

PAPRPAPPSLPP and EKLKTKEEKKTR are within error of each other in protein stability index: 0.709 ± 0.015 for the first, 0.759 ± 0.054 for the second.

Compared with PPASLRRPRSYL, PFFHFLGFSYFC is lower in protein stability index: 0.748 ± 0.025 for the first, 0.684 ± 0.024 for the second.

RPSPPALPRFLL and PSPRPPPPPPSA are within error of each other in protein stability index: 0.703 ± 0.0073 for the first, 0.705 ± 0.009 for the second.

Compared with CVWSGHIWDLLF, GGGGGGAEGAGW is lower in protein stability index: 0.764 ± 0.016 for the first, 0.711 ± 0.02 for the second.

First: GGAPRSSGRAGE
Second: LGWPWGGRGEGL
The protein stability index of the first is higher: 0.691 ± 0.028 for the first, 0.606 ± 0.0069 for the second.

First: LVSPPTPPPFPP
Second: PPLPAPPPLRPP
The protein stability index of the first is higher: 0.702 ± 0.059 for the first, 0.606 ± 0.012 for the second.

STKGAIKVEECI and PDPPPTRPFPAP are within error of each other in protein stability index: 0.636 ± 0.023 for the first, 0.672 ± 0.045 for the second.

Going from LNVVLTRTSVRY to SACAPSPPSPSP, the protein stability index rises from 0.657 ± 0.041 to 0.749 ± 0.015.

RPPCLRPPPPPL and PPPPPHPRSPLS are within error of each other in protein stability index: 0.727 ± 0.012 for the first, 0.738 ± 0.037 for the second.

PPPLPAPPFSVF and PPPSSPPTHLTS are within error of each other in protein stability index: 0.649 ± 0.028 for the first, 0.678 ± 0.012 for the second.

TYLGISNLHPAI and QFWVICTRGSEN are within error of each other in protein stability index: 0.709 ± 0.031 for the first, 0.694 ± 0.029 for the second.

First: AYLNPFTSALTA
Second: PTPTNLLPPRKY
The protein stability index of the first is lower: 0.616 ± 0.028 for the first, 0.6504 ± 0.0044 for the second.

PRALCPPPSPST and FKSYNNDLQDRI are within error of each other in protein stability index: 0.697 ± 0.043 for the first, 0.728 ± 0.16 for the second.

CGGAKLPEQCQK and RDNKIKEGKKKK are within error of each other in protein stability index: 0.6813 ± 0.0022 for the first, 0.682 ± 0.1 for the second.

Going from GGVGLVGEVCPI to LETVWRFECGWG, the protein stability index rises from 0.688 ± 0.028 to 0.7759 ± 0.0048.

LPLRPPPSLLSR and RSPPHSNLAHCI are within error of each other in protein stability index: 0.689 ± 0.064 for the first, 0.684 ± 0.037 for the second.

SSSLPPSHFYPP and ISPFPSFPPTLS are within error of each other in protein stability index: 0.718 ± 0.064 for the first, 0.734 ± 0.064 for the second.

GRGVGACLVVVV and RRFLRRISAFAS are within error of each other in protein stability index: 0.523 ± 0.022 for the first, 0.558 ± 0.06 for the second.

SSCFVIRSLSNP and SRLPRGTYRGCP are within error of each other in protein stability index: 0.72 ± 0.14 for the first, 0.711 ± 0.076 for the second.

VVCVGAEVGEGG and TPPLHSPFLFPP are within error of each other in protein stability index: 0.7197 ± 0.0067 for the first, 0.671 ± 0.049 for the second.

First: LLSSPSVSPPPD
Second: GESAWWRSFGDV
The protein stability index of the first is lower: 0.6754 ± 0.0022 for the first, 0.791 ± 0.11 for the second.

GQHSCTRVDTQQ and VYYDSVVSLSGA are within error of each other in protein stability index: 0.734 ± 0.011 for the first, 0.661 ± 0.079 for the second.

First: LGVGGRWGGPGA
Second: HLSWFSPFFASG
The protein stability index of the first is lower: 0.691 ± 0.059 for the first, 0.772 ± 0.018 for the second.

PEEPSANWTGFF and PRRVGRLGAPMG are within error of each other in protein stability index: 0.598 ± 0.033 for the first, 0.719 ± 0.11 for the second.

Compared with IMSFTLLAPGQM, FFGYLVDEGLWV is higher in protein stability index: 0.692 ± 0.019 for the first, 0.738 ± 0.0084 for the second.

First: TPLLRRHSFSRN
Second: RRRQAEEDERNG
The protein stability index of the first is higher: 0.779 ± 0.021 for the first, 0.658 ± 0.07 for the second.

FCLGPSLSSSSL and GWWGGCRSGVPE are within error of each other in protein stability index: 0.714 ± 0.027 for the first, 0.672 ± 0.069 for the second.

Going from PRPPPSPPPILP to LPPPPPASPPSP, the protein stability index rises from 0.676 ± 0.0072 to 0.703 ± 0.01.

RYRGPIPHEHTC and LPRPPPPPPPSP are within error of each other in protein stability index: 0.652 ± 0.085 for the first, 0.827 ± 0.098 for the second.

CGRPPPLFAFIP and HLLLLDLTRPIL are within error of each other in protein stability index: 0.701 ± 0.037 for the first, 0.745 ± 0.061 for the second.

PSTVSPFRPPIT and RLLFLPPPPPPP are within error of each other in protein stability index: 0.711 ± 0.039 for the first, 0.654 ± 0.082 for the second.

First: ILDRRTKREDLK
Second: CMWDAVGFALRS
The protein stability index of the first is lower: 0.667 ± 0.038 for the first, 0.72 ± 0.011 for the second.

In the case of PPSPPVRPPLLA, the protein stability index is reported as 0.617 ± 0.14.
